# Data published in patent US20230056486.
# Where “and” joins values, the source holds several entries; their conditions need not be identical. Identical values can stand only once.
# B1: clostripain (protein)
# chain: NKNQKVTIMYYCDADNNLEGSLLNDIEEMKTGYKDSPNLNLIALVDRSPRYSSDEKVLGEDFSDTRLYKIEHNKANRLDGKNEFPEISTTSKYEANMGDPEVLKKFIDYCKSNYEADKYVLIMANHGGGAREKSNPRLNRAICWDDSNLDKNGEADCLYMGEISDHLTEKQSVDLLAFDACLMGTAEVAYQYRPGNGGFSADTLVASSPVVWGPGFKYDKIFDRIKAGGGTNNEDDLTLGGKEQNFDPATITNEQLGALFVEEQRDSTHANGRYDQHLSFYDLKKAESVKRAIDNLAVNLSNENKKSEIEKLRGSGIHTDLMHYFDEYSEGEWVEYPYFDVYDLCEKINKSENFSSKTKDLASNAMNKLNEMIVYSFGDPSNNFKEGKNGLSIFLPNGDKKYSTYYTSTKIPHWTMQSWYNSIDTVKYGLNPYGKLSWCKDGQDPEINKVGNWFELLDSWFDKTNDVTGGVNHYQW
# B2: Proteinase K (protein)
# chain: AAQTNAPWGLARISSTSPGTSTYYYDESAGQGSCVYVIDTGIEASHPEFEGRAQMVKTYYYSSRDGNGHGTHCAGTVGSRTYGVAKKTQLFGVKVLDDNGSGQYSTIIAGMDFVASDKNNRNCPKGVVASLSLGGGYSSSVNSAAARLQSSGVMVAVAAGNNNADARNYSPASEPSVCTVGASDRYDRRSSFSNYGSVLDIFGPGTSILSTWIGGSTRSISGTSMATPHVAGLAAYLMTLGKTTAASACRYIADTANKGDLSNIPFGTVNLLAYNNYQA
# Biological target: T1, (GR)10 dipeptide repeat peptide
# T1 chain: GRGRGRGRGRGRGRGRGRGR
protein,measurement,value
B1,(GR)10 concentration left at 0 min (LC/MS; 50 µM start; TFA added before enzyme),39.7 µM and 37.9 µM
same,(GR)10 concentration left at 30 min (LC/MS; 50 µM start),BLQ
same,(GR)10 concentration left at 60 min (LC/MS; 50 µM start),BLQ
same,(GR)10 concentration left at 120 min (LC/MS; 50 µM start),BLQ
same,(GR)10 left in CSF; Clostripain + DTT-Immobilized-5 min reaction (LC/MS; 200 µM (GR)10 in human CSF) (normalized µM),58
same,(GR)10 left in CSF; Clostripain + DTT-Immobilized-60 min reaction (LC/MS; 200 µM (GR)10 in human CSF) (normalized µM),-0
same,"(GR)10 left in CSF; Clostripain-Immobilized-5 min reaction, no DTT (LC/MS; 200 µM (GR)10 in human CSF) (normalized µM)",395
same,"(GR)10 left in CSF; Clostripain-Immobilized-60 min reaction, no DTT (LC/MS; 200 µM (GR)10 in human CSF) (normalized µM)",-0
same,(GR)10 left; Clostripain + DTT-Immobilized-5 min reaction (LC/MS) (µM (normalized to GR concentration)),-0
same,(GR)10 left; Clostripain + DTT-immobilized-60 min reaction (LC/MS) (µM (normalized to GR concentration)),-0
same,(GR)10 left; Clostripain + DTT-in solution-5 min reaction (LC/MS) (µM (normalized to GR concentration)),5.7
same,(GR)10 left; Clostripain + DTT-in solution-60 min reaction (LC/MS) (µM (normalized to GR concentration)),-0
same,(GR)10 left; Clostripain + DTT-resin wash from 5 min reaction (LC/MS) (µM (normalized to GR concentration)),-0
same,(GR)10 left; Clostripain + DTT-resin wash from 60 min reaction (LC/MS) (µM (normalized to GR concentration)),-0
same,"(GR)10 left; Clostripain-Immobilized-5 min reaction, no DTT (LC/MS)",0 µM
same,"(GR)10 left; Clostripain-immobilized-60 min reaction, no DTT (LC/MS)",0 µM
same,"(GR)10 left; Clostripain-in solution-5 min reaction, no DTT (LC/MS)",12.4 µM
same,"(GR)10 left; Clostripain-in solution-60 min reaction, no DTT (LC/MS)",0 µM
same,"(GR)10 left; Clostripain-resin wash from 5 min reaction, no DTT (LC/MS)",0 µM
same,"(GR)10 left; Clostripain-resin wash from 60 min reaction, no DTT (LC/MS)",0 µM
B2,(GR)10 concentration left at 0 min (LC/MS; 50 µM start; TFA added before enzyme),44.9 µM and 49.4 µM
same,(GR)10 concentration left at 2.5 min (LC/MS; 50 µM start),55.8 µM and 55.4 µM
same,(GR)10 concentration left at 5 min (LC/MS; 50 µM start),54.4 µM and 48.8 µM
same,(GR)10 concentration left at 10 min (LC/MS; 50 µM start),50.3 µM and 44.1 µM
